Consider one protein from patent US4605614A, “Method for measuring plasmin” (Nitto Boseki Co., Ltd., priority 1981, dated 1986).

Common to all, as to test: Km, Vmax and Vmax/Km of substrates for plasmin (pig)
Type in all cases: biochemical, Porcine (pig)

Substrate in series [1]: Cc1ccc(S(=O)(=O)NCCCC[C@@H](N)C(=O)N[C@@H](CC(C)C)C(=O)N[C@@H](CCCCN)C(=O)Nc2ccc([N+](=O)[O-])cc2)cc1
Particulars: other: TABLE 1, PNA substrates, plasmin (pig), 405 nm.
Excerpt: (§1) The substrates produced by the above examples were used in the measurement of plasmin as follows: The principle of this measurement comprises quantitatively analyzing the decomposition product p-nitroaniline or 3-carboxy-4-hydroxyaniline produced by the enzymatic hydrolysis, by measuring the absorbance (O.D.) directly at 405 nm in the case of p-nitroaniline and, in the case of the 3-carboxy-4-hydroxyaniline at 615 nm after condensing it with 2,6-xylenol in the presence of an oxidant to develop a color.
(§2) For the measurements of these constants, the following method is adopted:
(§3) The enzyme and the substrate are mixed in a buffer solution and subjected to the hydrolysis for 30 seconds. The concentration of the substrate [S] is changed and the enzyme concentration is maintained constant. By measuring the absorbance (O.D.), the initial velocity of the hydrolysis can be determined. Where 1/V is plotted as a function of 1/[S], there is obtained a Lineweaver and Burk's linea from which graph the Vmax and Km can be determined.

Substrate in series [2]: NCCCC[C@H](NC(=O)[C@H](Cc1ccccc1)NC(=O)[C@H](N)CCC(=O)NCCCc1ccccc1)C(=O)Nc1ccc([N+](=O)[O-])cc1
Conditions: other: TABLE 1, PNA substrates, plasmin (pig), 405 nm.
Excerpt: as §1, §2, §3

Substrate in series [3]: CS(=O)(=O)NCCCC[C@@H](N)C(=O)N[C@@H](Cc1ccccc1)C(=O)N[C@@H](CCCCN)C(=O)Nc1ccc(O)c(C(=O)O)c1
Conditions: other: TABLE 2, CHA substrates, plasmin (pig), 2,6-xylenol 615 nm.
Excerpt: as §1, §2, §3

Substrate in series [4]: Cc1cc(C)c(S(=O)(=O)NCCCC[C@@H](N)C(=O)N[C@@H](Cc2ccccc2)C(=O)N[C@@H](CCCCN)C(=O)Nc2ccc(O)c(C(=O)O)c2)c(C)c1
Conditions: other: TABLE 2, CHA substrates, plasmin (pig), 2,6-xylenol 615 nm.
Excerpt: as §1, §2, §3

Substrate in series [5]: NCCCC[C@H](NC(=O)[C@H](Cc1ccccc1)NC(=O)[C@H](N)CC(=O)OC1CCCCC1)C(=O)Nc1ccc(O)c(C(=O)O)c1
Particulars: other: TABLE 2, CHA substrates, plasmin (pig), 2,6-xylenol 615 nm.
Excerpt: as §1, §2, §3

Substrate in series [6]: NCCCC[C@H](NC(=O)[C@H](Cc1ccccc1)NC(=O)[C@H](N)CCCCNS(=O)(=O)c1ccc2ccccc2c1)C(=O)Nc1ccc([N+](=O)[O-])cc1
Particulars: other: TABLE 1, PNA substrates, plasmin (pig), 405 nm.
Excerpt: as §1, §2, §3

Substrate in series [7]: Cc1ccc(CCOC(=O)CC[C@@H](N)C(=O)N[C@@H](Cc2ccccc2)C(=O)N[C@@H](CCCCN)C(=O)Nc2ccc([N+](=O)[O-])cc2)cc1
Particulars: other: TABLE 1, PNA substrates, plasmin (pig), 405 nm.
Excerpt: as §1, §2, §3

Substrate in series [8]: NCCCC[C@H](NC(=O)[C@H](Cc1ccccc1)NC(=O)[C@H](N)CCCCNS(=O)(=O)c1ccccc1)C(=O)Nc1ccc(O)c(C(=O)O)c1
Particulars: other: TABLE 2, CHA substrates, plasmin (pig), 2,6-xylenol 615 nm.
Excerpt: as §1, §2, §3

Substrate in series [9]: NCCCC[C@H](NC(=O)[C@H](Cc1ccccc1)NC(=O)[C@H](N)CCC(=O)NCCc1ccccc1)C(=O)Nc1ccc(O)c(C(=O)O)c1
Particulars: other: TABLE 2, CHA substrates, plasmin (pig), 2,6-xylenol 615 nm.
Excerpt: as §1, §2, §3

Substrate in series [10]: NCCCC[C@H](NC(=O)[C@H](Cc1ccccc1)NC(=O)[C@H](N)CCC(=O)OC1CCCCC1)C(=O)Nc1ccc([N+](=O)[O-])cc1
Conditions: other: TABLE 1, PNA substrates, plasmin (pig), 405 nm.
Excerpt: as §1, §2, §3

Substrate in series [11]: Cc1ccc(S(=O)(=O)NCCCC[C@@H](N)C(=O)N[C@@H](CC(C)C)C(=O)N[C@@H](CCCCN)C(=O)Nc2ccc(O)c(C(=O)O)c2)cc1
Particulars: other: TABLE 2, CHA substrates, plasmin (pig), 2,6-xylenol 615 nm.
Excerpt: as §1, §2, §3

Substrate in series [12]: CC(C)C[C@H](NC(=O)[C@H](N)C(C)C)C(=O)N[C@@H](CCCCN)C(=O)Nc1ccc(O)c(C(=O)O)c1
Conditions: other: TABLE 2, CHA substrates, plasmin (pig), 2,6-xylenol 615 nm.
Excerpt: as §1, §2, §3

Substrate in series [13]: CCCC(=O)NCCCC[C@@H](N)C(=O)N[C@@H](Cc1ccccc1)C(=O)N[C@@H](CCCCN)C(=O)Nc1ccc(O)c(C(=O)O)c1
Conditions: other: TABLE 2, CHA substrates, plasmin (pig), 2,6-xylenol 615 nm.
Excerpt: as §1, §2, §3

Substrate in series [14]: NCCCC[C@H](NC(=O)[C@H](Cc1ccccc1)NC(=O)[C@H](N)CCCCNC(=O)c1ccc2ccccc2c1)C(=O)Nc1ccc(O)c(C(=O)O)c1
Particulars: other: TABLE 2, CHA substrates, plasmin (pig), 2,6-xylenol 615 nm.
Excerpt: as §1, §2, §3

Substrate in series [15]: CC(C)OC(=O)C[C@@H](N)C(=O)N[C@@H](Cc1ccccc1)C(=O)N[C@@H](CCCCN)C(=O)Nc1ccc(O)c(C(=O)O)c1
Particulars: other: TABLE 2, CHA substrates, plasmin (pig), 2,6-xylenol 615 nm.
Excerpt: as §1, §2, §3

Substrate in series [16]: NCCCC[C@H](NC(=O)[C@H](Cc1ccccc1)NC(=O)[C@H](N)CCC(=O)OCCc1ccccc1)C(=O)Nc1ccc([N+](=O)[O-])cc1
Conditions: other: TABLE 1, PNA substrates, plasmin (pig), 405 nm.
Excerpt: as §1, §2, §3

Substrate in series [17]: NCCCC[C@H](NC(=O)[C@H](Cc1ccccc1)NC(=O)[C@H](N)CCCCNS(=O)(=O)c1cccc2ccccc12)C(=O)Nc1ccc(O)c(C(=O)O)c1
Particulars: other: TABLE 2, CHA substrates, plasmin (pig), 2,6-xylenol 615 nm.
Excerpt: as §1, §2, §3

Substrate in series [18]: NCCCC[C@H](NC(=O)[C@H](Cc1ccccc1)NC(=O)[C@H](N)CCCCNC(=O)c1ccccc1)C(=O)Nc1ccc(O)c(C(=O)O)c1
Conditions: other: TABLE 2, CHA substrates, plasmin (pig), 2,6-xylenol 615 nm.
Excerpt: as §1, §2, §3

Substrate in series [19]: NCCCC[C@H](NC(=O)[C@H](Cc1ccccc1)NC(=O)[C@H](N)CCCCNS(=O)(=O)c1ccc2ccccc2c1)C(=O)Nc1ccc(O)c(C(=O)O)c1
Conditions: other: TABLE 2, CHA substrates, plasmin (pig), 2,6-xylenol 615 nm.
Excerpt: as §1, §2, §3

Substrate in series [20]: Cc1ccc(S(=O)(=O)NCC(=O)N2CCC[C@H]2C(=O)N[C@@H](CCCCN)C(=O)Nc2ccc([N+](=O)[O-])cc2)cc1
Excerpt: as §1, §2, §3
Substrate in series [21]: NCCCC[C@H](NC(=O)[C@H](Cc1ccccc1)NC(=O)[C@H](N)CCCCNC(=O)Cc1ccccc1)C(=O)Nc1ccc(O)c(C(=O)O)c1
Conditions: other: TABLE 2, CHA substrates, plasmin (pig), 2,6-xylenol 615 nm.
Excerpt: as §1, §2, §3

B1: plasmin (pig) (Sus scrofa) (protein)
chain: RIYLSECKTGNGKNYRGTTSKTKSGVICQKWSVSSPHIPKYSPEKFPLAGLEENYCRNPDNDEKGPWCYTTDPETRFDYCDIPECEDECMHCSGEHYEGKISKTMSGIECQSWGSQSPHAHGYLPSKFPNKNLKMNYCRNPDGEPRPWCFTTDPNKRWEFCDIPRCTTPPPTSGPTYQCLKGRGENYRGTVSVTASGHTCQRWSAQSPHKHNRTPENFPCKNLEENYCRNPDGETAPWCYTTDSEVRWDYCKIPSCGSSTTSTEYLDAPVPPEQTPVAQDCYRGNGESYRGTSSTTITGRKCQSWVSMTPHRHEKTPGNFPNAGLTMNYCRNPDADKSPWCYTTDPRVRWEYCNLKKCSETEQQVTNFPAIAQVPSVEDLSEDCMFGNGKRYRGKRATTVAGVPCQEWAAQEPHRHSIFTPETNPRAGLEKNYCRNPDGDDNGPWCYTTNPQKLFDYCDVPQCVTSSFDCGKPKVEPKKCPARVVGGCVSIPHSWPWQISLRHRYGGHFCGGTLISPEWVLTAKHCLEKSSSPSSYKVILGAHEEYHLGEGVQEIDVSKLFKEPSEADIALLKLSSPAIITDKVIPACLPTPNYVVADRTACYITGWGETKGTYGAGLLKEARLPVIENKVCNRYEYLGGKVSPNELCAGHLAGGIDSCQGDSGGPLVCFEKDKYILQGVTSWGLGCALPNKPGVYVRVSRFVTWIEEIMRRN
In general, Km refers to the concentration of substrate that gives half-maximal velocity. With B1, the Michaelis constant (Km) in series [1] turned out to be 189 µM; in [2], 39.3 µM; in [3], 326 µM; in [4], 272 µM; in series [5], 379 µM; in [6], 17.9 µM. Also, the Michaelis constant (Km) in series [7] came out at 42.8 µM; in series [8], 532 µM; in [9], 397 µM; in series [10] it was 32.2 µM; in series [11], 1000 µM; in [12], 3210 µM. Also, the Michaelis-Menten constant (Km) in series [13] is 239 µM; in series [14], 325 µM; in [15], 352 µM; in [16], 31.1 µM; in [17], 596 µM; in series [18], 334 µM. Besides, the Michaelis constant (Km) was 179 µM in [19]; 278 µM in series [20] (other: Porcine Plasmin, comparison table in description); 278 µM in series [20] (other: TABLE 1, PNA substrates, plasmin (pig), 405 nm); 357 µM in [21].
